Assay results: patent US20230395187A1 (published 2023)

Biological target: SARS-CoV-2 spike protein, WT (SARS-CoV-2, UniProt P0DTC2 14-1208)
Assay: virus-free Luminex binding assay, spike on beads

B1: Imdevimab (RGN87) (antibody, V domains shown)
VH: QVQLVESGGGVVQPGRSLRLSCAASGFTFSNYAMYWVRQAPGKGLEWVAVISYDGSNKYYADSVKGRFTISRDNSKNTLYLQMNSLRTEDTAVYYCASGSDYGDYLLVYWGQGTLVTVSS
VL: QSALTQPASVSGSPGQSITISCTGTSSDVGGYNYVSWYQQHPGKAPKLMIYDVSKRPSGVSNRFSGSKSGNTASLTISGLQSEDEADYYCNSLTSISTWVFGGGTKLTVLG
For B1, the EC50 was 0.082 µg/mL.
